Among the data in the Human Domainome abundance scans (Beltran et al. 2025) are abundance fitness values, retold here.

The chains are these.
B1: Nuclear receptor subfamily 1 group D member 2, residues 103 to 171; numbered along this chain, Q14995 (parent)
chain: CKVCGDVASGFHYGVHACEGCKGFFRRSIQQNIQYKKCLKNENCSIMRMNRNRCQQCRFKKCLSVGMSR

± gives the uncertainty stated by the source.

The series covers variants of B1. The series is described as follows: abundance fitness (aPCA) (normalised: wild type 0, dead -1); higher = more abundant; growth selection in yeast, the domain comes from the species named. The conditions noted are these: Homo sapiens.
For CKVCGDVASGFHYGVHACEGCKGFFRRSIQQNIQYKKCLKNENCSIMRMNRNRCSQCRFKKCLSVGMSR [Q55S], the abundance fitness was -0.115 ± 0.074.

Take CKVCGDVASGFHYGVHACEGCKGFFRRSIQQNIQYKKCLKNENCSIMRMNRNRCYQCRFKKCLSVGMSR [Q55Y]: the abundance fitness was -0.08 ± 0.17.

For CKVCGDVASGFHYGVHACEGCKGFFRRSIQQNIQYKKCLKNENCSIMRMNRNRCNQCRFKKCLSVGMSR [Q55N], the abundance fitness was -0.265 ± 0.18.

Turning to CKVCGDVASGFHYGVHACEGCKGFFRRSIQQNIQYKKCLKNENCSIMRMNRNRCQQCRPKKCLSVGMSR [F59P], the abundance fitness is -0.783 ± 0.21.

Regarding CKVCGDVASGFHYGVHACEGCKGFFRRSIQQNIQYKKCLKNENCSIMRMNRNRCQQCRSKKCLSVGMSR [F59S], the abundance fitness is -0.809 ± 0.25.

Regarding CKVCGDVASGFHYGVHACEGCKGFFRRSIQQNIQYKKCLKNENCSIMRMNRNRCQQCRTKKCLSVGMSR [F59T], the abundance fitness is -0.512 ± 0.37.

As for CKVCGDVASGFHYGVHACEGCKGFFRRSIQQNIQYKKCLKNENCSIMRMNRNRCQQCRDKKCLSVGMSR [F59D], the abundance fitness was -0.8 ± 0.4.

Regarding CKVCGDVASGFHYGVHACEGCKGFFRRSIQQNIQYKKCLKNENCSIMRMNRNRCQQCREKKCLSVGMSR [F59E], the abundance fitness is -0.433 ± 0.27.

On to CKVCGDVASGFHYGVHACEGCKGFFRRSIQQNIQYKKCLKNENCSIMRMNRNRCQQCRGKKCLSVGMSR [F59G], for which the abundance fitness is -0.395 ± 0.11.

In the case of CKVCGDVASGFHYGVHACEGCKGFFRRSIQQNIQYKKCLKNENCSIMRMNRNRCQQCRWKKCLSVGMSR [F59W], the abundance fitness is -0.255 ± 0.15.

As to CKVCGDVASGFHYGVHACEGCKGFFRRSIQQNIQYKKCLKNENCSIMRMNRNRCQQCRIKKCLSVGMSR [F59I], the abundance fitness was -0.355 ± 0.39.

Take CKVCGDVASGFHYGVHACEGCKGFFRRSIQQNIQYKKCLKNENCSIMRMNRNRCQQCRRKKCLSVGMSR [F59R]: the abundance fitness was -0.477 ± 0.17.

With CKVCGDVASGFHYGVHACEGCKGFFRRSIQQNIQYKKCLKNENCSIMRMNRNRCQQCRLKKCLSVGMSR [F59L], the abundance fitness is 0.107 ± 0.082.

For CKVCGDVASGFHYGVHACEGCKGFFRRSIQQNIQYKKCLKNENCSIMRMNRNRCQQCRQKKCLSVGMSR [F59Q], the abundance fitness is -0.536 ± 0.41.

In the case of CKVCGDVASGFHYGVHACEGCKGFFRRSIQQNIQYKKCLKNENCSIMRMNRNRCQQCRYKKCLSVGMSR [F59Y], the abundance fitness is -0.28 ± 0.24.

With CKVCGDVASGFHYGVHACEGCKGFFRRSIQQNIQYKKCLKNENCSIMRMNRNRCQQCRAKKCLSVGMSR [F59A], the abundance fitness is -0.601 ± 0.22.

Consider CKVCGDVASGFHYGVHACEGCKGFFRRSIQQNIQYKKCLKNENCSIMRMNRNRCQQCRMKKCLSVGMSR [F59M], for which the abundance fitness was -0.326 ± 0.19.

For CKVCGDVASGFHYGVHACEGCKGFFRRSIQQNIQYKKCLKNENCSIMRMNRNRCQQCRFLKCLSVGMSR [K60L], the abundance fitness was -0.097 ± 0.087.

Regarding CKVCGDVASGFHYGVHACEGCKGFFRRSIQQNIQYKKCLKNENCSIMRMNRNRCQQCRFIKCLSVGMSR [K60I], the abundance fitness amounted to 0.406 ± 0.2.

For CKVCGDVASGFHYGVHACEGCKGFFRRSIQQNIQYKKCLKNENCSIMRMNRNRCQQCRFEKCLSVGMSR [K60E], the abundance fitness turned out to be 0.033 ± 0.12.

With CKVCGDVASGFHYGVHACEGCKGFFRRSIQQNIQYKKCLKNENCSIMRMNRNRCQQCRFMKCLSVGMSR [K60M], the abundance fitness was -0.141 ± 0.14.

In the case of CKVCGDVASGFHYGVHACEGCKGFFRRSIQQNIQYKKCLKNENCSIMRMNRNRCQQCRFFKCLSVGMSR [K60F], the abundance fitness was found to be 0.044 ± 0.2.

For CKVCGDVASGFHYGVHACEGCKGFFRRSIQQNIQYKKCLKNENCSIMRMNRNRCQQCRFGKCLSVGMSR [K60G], the abundance fitness was -0.428 ± 0.15.

With CKVCGDVASGFHYGVHACEGCKGFFRRSIQQNIQYKKCLKNENCSIMRMNRNRCQQCRFAKCLSVGMSR [K60A], the abundance fitness was -0.009 ± 0.16.

Regarding CKVCGDVASGFHYGVHACEGCKGFFRRSIQQNIQYKKCLKNENCSIMRMNRNRCQFCRFKKCLSVGMSR [Q56F], the abundance fitness was -0.006 ± 0.24.

CKVCGDVASGFHYGVHACEGCKGFFRRSIQQNIQYKKCLKNENCSIMRMNRNRCQTCRFKKCLSVGMSR [Q56T]: the abundance fitness is -0.013 ± 0.11.

Regarding CKVCGDVASGFHYGVHACEGCKGFFRRSIQQNIQYKKCLKNENCSIMRMNRNRCQVCRFKKCLSVGMSR [Q56V], the abundance fitness is -0.134 ± 0.067.

Turning to CKVCGDVASGFHYGVHACEGCKGFFRRSIQQNIQYKKCLKNENCSIMRMNRNRCQICRFKKCLSVGMSR [Q56I], the abundance fitness is -0.134 ± 0.22.

For CKVCGDVASGFHYGVHACEGCKGFFRRSIQQNIQYKKCLKNENCSIMRMNRNRCQHCRFKKCLSVGMSR [Q56H], the abundance fitness is -0.09 ± 0.18.

With CKVCGDVASGFHYGVHACEGCKGFFRRSIQQNIQYKKCLKNENCSIMRMNRNRCQLCRFKKCLSVGMSR [Q56L], the abundance fitness was -0.022 ± 0.08.

For CKVCGDVASGFHYGVHACEGCKGFFRRSIQQNIQYKKCLKNENCSIMRMNRNRCQWCRFKKCLSVGMSR [Q56W], the abundance fitness worked out at 0.39 ± 0.084.

Turning to CKVCGDVASGFHYGVHACEGCKGFFRRSIQQNIQYKKCLKNENCSIMRMNRNRCQECRFKKCLSVGMSR [Q56E], the abundance fitness was found to be 0.1 ± 0.12.

As for CKVCGDVASGFHYGVHACEGCKGFFRRSIQQNIQYKKCLKNENCSIMRMNRNRCQNCRFKKCLSVGMSR [Q56N], the abundance fitness was 0.143 ± 0.18.

Turning to CKVCGDVASGFHYGVHACEGCKGFFRRSIQQNIQYKKCLKNENCSIMRMNRNRCQMCRFKKCLSVGMSR [Q56M], the abundance fitness came to 0.002 ± 0.11.

CKVCGDVASGFHYGVHACEGCKGFFRRSIQQNIQYKKCLKNENCSIMRMNRNRCQCCRFKKCLSVGMSR [Q56C]: the abundance fitness is -0.391 ± 0.23.

Regarding CKVCGDVASGFHYGVHACEGCKGFFRRSIQQNIQYKKCLKNENCSIMRMNRNRCQPCRFKKCLSVGMSR [Q56P], the abundance fitness is -0.205 ± 0.12.

On to CKVCGDVASGFHYGVHACEGCKGFFRRSIQQNIQYKKCLKNENCSIMRMNRNRCQRCRFKKCLSVGMSR [Q56R], for which the abundance fitness is -0.127 ± 0.076.

For CKVCGDVASGFHYGVHACEGCKGFFRRSIQQNIQYKKCLKNENCSIMRMNRNRCQDCRFKKCLSVGMSR [Q56D], the abundance fitness was 0.397 ± 0.14.

For CKVCGDVASGFHYGVHACEGCKGFFRRSIQQNIQYKKCLKNENCSIMRMNRNRCQKCRFKKCLSVGMSR [Q56K], the abundance fitness was -0.3 ± 0.064.
